Patent US9308238B2, “Compositions and methods for modulating EMT and uses thereof” (Whitehead Institute for Biomedical Research, priority 2010, dated 2016)

B1: SFRP1: Recombinant human SFRP1 protein (R&D Systems), secreted decoy receptor binding canonical and non-canonical Wnt ligands (protein, UniProt Q8N474 32-314, looked up)
Secreted frizzled-related …: SEYDYVSFQSDIGPYQSGRFYTKPPQCVDIPADLRLCHNVGYKKMVLPNLLEHETMAEVKQQASSWVPLLNKNCHAGTQVFLCSLFAPVCLDRPIYPCRWLCEAVRDSCEPVMQFFGFYWPEMLKCDKFPEGDVCIAMTPPNATEASKPQGTTVCPPCDNELKSEAIIEHLCASEFALRMKIKEVKKENGDKKIVPKKKKPLKLGPIKKKDLKKLVLYLKNGADCPCHQLDNLSHHFLIMGRKVKSQYLLTAIHKWDKKNKEFKNFMKKMKNHECPTFQSVFK
B2: BMP4: Recombinant BMP4 protein obtained from Stemgent (protein, UniProt P12644 293-408, looked up)
Bone morphogenetic protein 4: SPKHHSQRARKKNKNCRRHSLYVDFSDVGWNDWIVAPPGYQAFYCHGDCPFPLADHLNSTNHAIVQTLVNSVNSSIPKACCVPTELSAISMLYLDEYDKVVLKNYQEMVVEGCGCR

Key:
HTwist and MSP cells = test: Boyden chamber migration assay, HTwist and MSP cells; type: cell-based, human
Description: FIGS. 3A-3E. Autocrine Signaling controls migration and mammosphere formation.
FIGS. 10A-10E. […] (FIG. 10C) Mammosphere assay: HTwist cells were treated daily during mammosphere formation (5 days) with proteins as described in (B); *control vs. single treatment, p<1×10^−5, **single vs. double-treatment, p<0.01, n(mammospheres)/1000 cells, n=6, (FIG. 10D) Migration Assay: HTwist and MSP cells were seeded into Boyden Chambers in the presence of TGF-beta Receptor I inhibitors A83-01 and SB431542 (SB43, both at 10 μM). (FIG. 10E) Mammosphere Assay: HTwist and MSP were treated daily during mammosphere formation (5 days) with BMP4 (0.5 μg/ml), SB431542 (10 μM) or a combination of both, n(mammospheres)/1000 cells, n=6.
Migration and invasion assays. For migration assays, 2×10^4 cells were seeded into 24-well cell culture inserts with 8-μm pores (Boyden Chambers, BD Falcon). For invasion assays, matrigel-coated inserts (BD Falcon) were used. After 12-48 hr, the cells on the upper surface of the filters were removed with a cotton swab. For visualization, cells on lower filter surfaces were fixed and stained with a Diff-Quick staining kit (Dade Behring).

HTwist cells [1] = test: Boyden chamber migration assay, HTwist cells (single vs combined proteins); type: cell-based, human; settings: DKK1 1 μg/ml, SFRP1, BMP4 0.5 μg/ml
Description: Migration and invasion assays. For migration assays, 2×10^4 cells were seeded into 24-well cell culture inserts with 8-μm pores (Boyden Chambers, BD Falcon). […] After 12-48 hr, the cells on the upper surface of the filters were removed with a cotton swab. For visualization, cells on lower filter surfaces were fixed and stained with a Diff-Quick staining kit (Dade Behring).

HTwist cells [2] = test: Mammosphere assay, HTwist cells; type: cell-based, human; settings: for reduction in sphere-forming efficiency, primary mammosphere formation: single vs combined proteins, daily for 5 days (FIG. 10C)
Description: FIGS. 10A-10E. […] (FIG. 10E) Mammosphere Assay: HTwist and MSP were treated daily during mammosphere formation (5 days) with BMP4 (0.5 μg/ml), SB431542 (10 μM) or a combination of both, n(mammospheres)/1000 cells, n=6.
Mammosphere and tumorsphere assay. Assays were performed as previously described with modifications (Dontu et al., 2003): 1000 cells/well were seeded in 96-well ultra-low adhesion plates (Corning) in MEGM medium containing 1.3% methylcellulose (Stem Cell Technologies) supplemented with 20 ng/ml EGF, 10 ng/ml bFGF (both Sigma) and B27 (Gibco). Primary spheres were dissociated by trypsinization and replated for secondary sphere formation after a period of 5-7 days.

MSP-RAS cells = test: Orthotopic tumor formation and metastasis after ex vivo treatment of MSP-RAS tumorspheres; type: in vivo, mice; settings: for reduction in lung metastases / reduction of metastatic foci in the liver: foci normalized by primary tumor weight, ex vivo treatment; for reduction of tumor weight / reduction of metastatic foci in the liver: on average
Description: FIGS. 4A-4G. Autocrine Signaling controls tumorigenicity and metastasis of MSP-RAS cells. (FIG. 4A) Migration assay: RAS-transformed MSP (MSP-RAS) were seeded in Boyden Chamber migration assays and recombinant SFRP1 (1 μg/ml) and BMP4 protein (0.5 μg/ml) were added; *control vs. single treatment, p<1×10^−8, **single vs. double treatment with SFRP1 and BMP4 (S+B), p<1×10^−4, n=3. (FIG. 4B) Tumorsphere assay: SFRP1 (1 μg/ml) and BMP4 protein (0.5 μg/ml) were added daily during primary sphere formation (5 days), spheres were dispersed and seeded for secondary sphere formation in the absence of further treatment; #control primary vs. secondary sphere formation, p=0.001; *control vs. single treatment, p<1×10^−4, **single vs. double treatment with SFRP1 and BMP4 (S+B), p<0.01, n(tumorspheres)/1000 cells, n=6. (FIG. 4C) Flow cytometry: CD44 and CD24 cell-surface markers of dissociated primary tumorspheres as described in (B). (FIG. 4D) Orthotopic tumor formation after ex vivo treatment during tumorsphere formation: primary tumorspheres as generated in (B) were pooled, dissociated and 1.0×10^5 cells were implanted in the fat pads of mice; shown are tumor weight and incidence, *indicates absence of tumor, n=5 mice/group. (FIG. 4E) Lung metastasis: fluorescence microscopy images of the major left lung lobe showing GFP-expressing metastatic nodules and quantification of the number of lung surface metastases; *control vs. SFRP1 treatment, p<0.05, **SFRP1 vs. BMP4 or double treatment (S+B), p<0.05, n=5 mice/group. (FIG. 4F) Liver metastasis: fluorescence microscopy images of the liver surface showing GFP-expressing micro-metastatic nodules after implantation of cells as described in (D) and quantification: 5 fields of liver surface were counted per mouse, *control vs. single treatment, p<0.05, **single vs. double treatment (S+B), p<0.05, n=5 mice/group. (FIG. 4G) Tumorigenicity assay: MSP-RAS cells suspended in PBS containing SFRP1 (1 μg/ml), BMP4 (0.5 μg/ml), and a combination of both (S+B) were implanted subcutaneously in mice at indicated cell numbers. In addition, 20 μl of PBS or PBS with proteins at indicated doses was injected peri-tumorally at 1, 2, 3 and 7 days after implanting the MSP-RAS cells.
We also wished to determine whether in vitro exposure to SFRP1 and BMP4 influenced subsequent in vivo behavior of MSP-RAS cells. For this purpose, we prepared single-cell suspensions from primary control MSP-RAS tumorspheres or from the residual tumorspheres that had formed during a 5 day in vitro treatment with SFRP1, BMP4 or a combination of both. Following injection of these populations into the mammary fat pads of mice, we noted that the tumors that originated from mammospheres of MSP-RAS cells that had been exposed ex vivo to either SFRP1, BMP4 or a combination of both were reduced in weight by 3-fold on average (FIG. 4D). However, we only observed a modest reduction in tumor incidence for the BMP4 and combination-treated groups (30%, FIG. 4D).
Animal studies. All research involving animals complied with protocols approved by the MIT Committee on Animal Care. For tumorigenicity studies, indicated numbers of cells in 100 μL of Matrigel (BD Biosciences) diluted 1:4 in PBS were injected subcutaneously in the left and right flanks of age-matched female nude (nu/nu) mice. Mice were sacrificed and necropsied after 10 weeks. For orthotopic injections, 1×10^5 cells suspended in PBS were injected into each of the two inguinal mammary glands of age-matched female NOD-SCID mouse. Mice were sacrificed after 10 weeks or when tumors reached a diameter >1 cm. Lung surface metastases were counted using a fluorescent microscope within 3 hr of specimen isolation.

[3] = 5 day ex vivo treatment, mammary fat pad injection

| Molecule | reduction of migration (HTwist and MSP cells; at the highest concentration) [fold] | reduction of migration, single vs combined proteins (HTwist cells [1]) [fold] | reduction of primary mammosphere number (HTwist cells [2]; added daily for 5 days (FIG. 3D)) [%] | reduction in sphere-forming efficiency, primary mammosphere formation (HTwist cells [2]) [%] | reduction of secondary sphere formation (HTwist cells [2]; treated during primary sphere formation only) [%] | reduction in lung metastases (MSP-RAS cells) [fold] | reduction of tumor weight (MSP-RAS cells; [3]) [fold] | reduction of metastatic foci in the liver (MSP-RAS cells) [fold] | maximum reduction of migration (HTwist and MSP cells; HTwist or MSP cells) [fold] | reduction in tumor incidence (MSP-RAS cells; [3]) [%] |
| --- | --- | --- | --- | --- | --- | --- | --- | --- | --- | --- |
| B1 | 20 | 5 | 50 | 40 | 90 | 2 | 3 | 2.5 | – | – |
| B2 | – | 2 | – | 64 | – | 7.5 | 3 | 5 | ≤ 2 | 30 |
